The source of these data is US20130115220A1, “METHOD FOR PREVENTION OR TREATMENT OF METABOLIC SYNDROME” (DAINIPPON SUMITOMO PHARMA CO., LTD., priority 2010, published 2013).

The test deals with 3T3-L1 preadipocytes. As to the kind of experiment: Differentiation of 3T3-L1 preadipocytes into mature adipocytes, lipid droplet formation by oil-red-O. The class given is cell-based. The settings on record: human rAIM used for AIM loading. As to the method: To examine the function of AIM produced by macrophage that infiltrated into adipose tissue on the surrounding adipocytes, an experiment was performed to load AIM in the culture process for differentiation of 3T3-L1 preadipocytes into mature adipocytes.
As AIM, recombinant AIM protein (rAIM) of mouse was used. rAIM was prepared by culturing human-derived HEK293T cells transfected with a vector expressing mouse AIM (pCAGGS-mAIM-HA plasmid) in a serum-free medium (FreeStyle™ 293 Expression Medium; Invitrogen). rAIM was purified from the culture supernatant thereof using an anti-HA antibody column. In other Reference Examples shown below, AIM used was a similar rAIM protein. AIM was loaded by adding AIM to a culture medium at a concentration of 5 μg/ml.
In addition, differentiation of 3T3-L1 cells was induced as shown in FIG. 13 by first proliferating 3T3-L1 cells by cultivating for 4 days (day(−2)-day 2), after which cultivating in a culture medium containing insulin, dexamethasone (DEX) and isobutylmethylxanthine (IBMX) for 2 days (day 2-day 4) to start differentiation induction stimulation, and further cultivating in a culture medium containing insulin for 2 days (day 4-day 6).
After the differentiation induction stimulation period (day 2-day 6), the cells were continuously cultured in a culture medium free of such differentiation induction stimulation factors. Then, the cells on day 10 day from the start of the differentiation induction stimulation (day 12) were stained with oil-red-O, and the state of differentiation of 3T3-L1 cells into mature adipocytes was observed.

B1: human rAIM: human AIM protein labeled with HA-tag produced in HEK293T cells (protein)
chain: SPSGVRLVGGLHRCEGRVEVEQKGQWGTVCDDGWDIKDVAVLCRELGCGAASGTPSGILYEPPAEKEQKVLIQSVSCTGTEDTLAQCEQEEVYDCSHDEDAGASCENPESSFSPVPEGVRLADGPGHCKGRVEVKHQNQWYTVCQTGWSLRAAKVVCRQLGCGRAVLTQKRCNKHAYGRKPIWLSQMSCSGREATLQDCPSGPWGKNTCNHDEDTWVECEDPFDLRLVGGDNLCSGRLEVLHKGVWGSVCDDNWGEKEDQVVCKQLGCGKSLSPSFRDRKCYGPGVGRIWLDNVRCSGEEQSLEQCQHRFWGFHDCTHQEDVAVICSG
modifications: left off: small tags and cut ends
notes: human AIM protein labeled with HA-tag produced in HEK293T cells
As to B1, the “differentiation of mouse-derived 3T3-L1 cells” value is “similarly suppressed”.
